Measurements: paper PMC11082193, “Enzymatic synthesis of mono- and trifluorinated alanine enantiomers expands the scope of fluorine biocatalysis” (Communications Chemistry, 2024)

Legend:
[1] = molecular target: T1, SlALR (Streptomyces lavendulae, UniProt Q65YW7); experiment: HPLC of released pyruvate; format: biochemical; conditions: beta-elimination of fluoride; 10 mM substrate, 0.02 or 0.1 μM enzyme, 50 μM pyridoxal 5'-phosphate, pH 8.0, 30 °C, 18 h
T1 construct: gene alr; expressed in E. coli BL21(DE3), Ni-NTA purified
T1 sequence (Q65YW7 2-378): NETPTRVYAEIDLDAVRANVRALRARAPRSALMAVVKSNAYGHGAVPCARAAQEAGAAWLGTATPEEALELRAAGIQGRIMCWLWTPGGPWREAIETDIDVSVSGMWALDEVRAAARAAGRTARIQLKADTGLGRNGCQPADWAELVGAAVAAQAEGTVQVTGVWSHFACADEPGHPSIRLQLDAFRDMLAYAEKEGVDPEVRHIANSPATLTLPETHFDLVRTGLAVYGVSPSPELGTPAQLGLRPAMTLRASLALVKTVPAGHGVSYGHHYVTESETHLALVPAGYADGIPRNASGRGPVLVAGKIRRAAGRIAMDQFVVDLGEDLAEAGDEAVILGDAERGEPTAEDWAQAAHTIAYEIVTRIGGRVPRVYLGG

[2] = molecular target: T2, NAD-PseFDH (Pseudomonas sp. 101, UniProt P33160); experiment: FDH activity assay with formate; format: biochemical
T2 construct: N-terminal His6 tag followed by TEV site (His6 purified); source plasmid pZ-ASL; expressed in E. coli BL21(DE3)
T2 sequence (P33160 2-401): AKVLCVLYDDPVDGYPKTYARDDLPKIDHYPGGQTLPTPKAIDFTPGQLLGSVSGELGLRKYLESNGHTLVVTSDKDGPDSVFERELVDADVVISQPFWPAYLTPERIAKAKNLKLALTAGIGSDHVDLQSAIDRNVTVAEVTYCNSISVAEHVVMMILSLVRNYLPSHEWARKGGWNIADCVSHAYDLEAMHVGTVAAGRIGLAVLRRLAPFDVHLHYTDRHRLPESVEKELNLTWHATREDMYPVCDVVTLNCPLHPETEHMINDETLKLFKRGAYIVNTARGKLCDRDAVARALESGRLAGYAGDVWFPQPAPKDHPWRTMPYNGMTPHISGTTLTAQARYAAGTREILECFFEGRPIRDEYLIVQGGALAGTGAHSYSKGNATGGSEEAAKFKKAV

[3] = tested on: CC(=O)C(=O)O; experiment: purified protein; format: biochemical, Vibrio proteolyticus; conditions: reductive amination, 0.5 mM NADH, 200 mM NH4Cl, 50 mM sodium phosphate pH 8.0, 30 °C
[4] = tested on: O=C(O)C(=O)CF; experiment: purified protein; format: biochemical, Vibrio proteolyticus; conditions: reductive amination, 0.5 mM NADH, 200 mM NH4Cl, 50 mM sodium phosphate pH 8.0, 30 °C
[5] = substrate: CC(=O)C(=O)O; experiment: purified protein; format: biochemical, Symbiobacterium thermophilum; conditions: reductive amination, 0.5 mM NADPH, 200 mM NH4Cl, 50 mM sodium phosphate pH 8.0, 30 °C
[6] = substrate: O=C(O)C(=O)CF; experiment: purified protein; format: biochemical, Symbiobacterium thermophilum; conditions: reductive amination, 0.5 mM NADPH, 200 mM NH4Cl, 50 mM sodium phosphate pH 8.0, 30 °C

Molecule: N[C@H](CF)C(=O)O [(S)-FAla, (S)-3-fluoroalanine]
- HPLC of released pyruvate [1]: (R)-FAla and (S)-FAla were transformed by ^SlALR into Pyr

Molecule: NC(=O)c1ccc[n+]([C@@H]2O[C@H](COP(=O)(O)OP(=O)(O)OC[C@H]3O[C@@H](n4cnc5c(N)ncnc54)[C@H](O)[C@@H]3O)[C@@H](O)[C@H]2O)c1 [NAD^+]
- FDH activity assay with formate ([2]; formate as co-substrate): confirmed the high specificity for either cofactor of the purified NAD-^PseFDH and NADP-^PseFDH enzymes

Molecule: N[C@@H](CF)C(=O)O [(R)-FAla, (R)-3-fluoroalanine]
- HPLC of released pyruvate [1]: (R)-FAla and (S)-FAla were transformed by ^SlALR into Pyr

Molecule: O=CO [formate]
- FDH activity assay with formate ([2]; NAD+ as co-substrate): the functionality of both ^PseFDH enzymes was verified on formate

Molecule: VpALD (Vibrio proteolyticus)
- Km [3]: 0.29 ± 0.04 mM
- Vmax [3]: 247 µmol/min/mg
- kcat [3]: 173 ± 8 s⁻¹
- kcat/Km [3]: 597000 M⁻¹ s⁻¹
- Km [4]: 0.18 ± 0.02 mM
- Vmax [4]: 11.9 µmol/min/mg
- kcat [4]: 8.3 ± 0.3 s⁻¹
- kcat/Km [4]: 46100 M⁻¹ s⁻¹

B1: StDAPDH (Symbiobacterium thermophilum IAM 14863) (protein)
chain: DKLRVAVVGYGNVGRYALEAVQAAPDMELVGVVRRKVLAATPPELTGVRVVTDISQLEGVQGALLCVPTRSVPEYAEAMLRRGIHTVDSYDIHGDLADLRRRLDPVAREHGAAAVISAGWDPGTDSIIRALLEFMAPKGITYTNFGPGMSMGHSVAVKAIPGVRDALSMTIPAGMGVHKRAVYVELEPGADFAEVERAIKTDPYFVRDETRVTQVESVSALMDVGHGVVMERKGVSGATHNQLFRFEMRINNPALTAQVMVAALRAAARQKPGCYTMIEIPVIDYLPGDREAWIRKLV
notes: expressed in E. coli BL21(DE3), Ni-NTA purified
- Km [5]: 6.7 ± 0.3 mM
- Vmax [5]: 1.81 µmol/min/mg
- kcat [5]: 1.05 ± 0.01 s⁻¹
- kcat/Km [5]: 160 M⁻¹ s⁻¹
- Km [6]: 14.0 ± 0.6 mM
- Vmax [6]: 0.161 µmol/min/mg
- kcat [6]: 0.093 ± 0.001 s⁻¹
- kcat/Km [6]: 6.6 M⁻¹ s⁻¹
